Measurements taken from patent US20230365641A1 (XILIO DEVELOPMENT, published 2023).
Like-named read-outs stand apart in the source and are kept apart here.

Assays:
[1] = molecular target: T1, PD-1 (antigen of the ELISA and of the in vitro affinity measurement) (UniProt Q15116 25-167, limits assumed); test: kinetic binding table: TC4 captured as ligand (capture level 74.3 RU), hPD1-his as sample; method not given
[2] = molecular target: T1, PD-1 (antigen of the ELISA and of the …); test: ELISA
[3] = molecular target: T1, PD-1 (antigen of the ELISA and of the …); test: ELISA on PD-1
[4] = molecular target: T1, PD-1 (antigen of the ELISA and of the …); test: ELISA on PD-1; remark: listed apart in the source
[5] = molecular target: T1, PD-1 (antigen of the ELISA and of the …); test: ELISA on PD-1; remark: listed apart in the source
[6] = molecular target: T1, PD-1 (antigen of the ELISA and of the …); test: ELISA on PD-1; remark: listed apart in the source
[7] = molecular target: T2, PD-1 shown on cells (Raji-PD-1 cells); CD3/CD28 activated human CD8+ T cells; PD-1 effector cells of the … (human, UniProt Q15116 25-288); test: cell-based or functional assay
[8] = molecular target: T2, PD-1 shown on cells (Raji-PD-1 cells; …); test: cell-based or functional assay; remark: listed apart in the source
[9] = molecular target: T2, PD-1 shown on cells (Raji-PD-1 cells; …); test: cell-based or functional assay; remark: listed apart in the source
[10] = molecular target: T2, PD-1 shown on cells (Raji-PD-1 cells; …); test: flow cytometry, on-cell binding to PD-1 expressing Raji cells, anti-human IgG-PE
[11] = molecular target: T2, PD-1 shown on cells (Raji-PD-1 cells; …); test: as above; remark: listed apart in the source
[12] = molecular target: T2, PD-1 shown on cells (Raji-PD-1 cells; …); test: as above; remark: listed apart in the source
[13] = molecular target: T2, PD-1 shown on cells (Raji-PD-1 cells; …); test: flow cytometry on CD3+CD8+ T cells within CD3/CD28 activated human PBMCs, 1 h at 4 C, anti-human IgG PE, % anti-hIgG+; table CD8+ T cells under the graph
Procedure: Mixed donor lots of human peripheral blood mononuclear cells (PBMCs) were thawed and seeded in medium (RPMI1640, 10% fetal bovine serum (FBS), 2 mM 1-Glutamine, 50 U/mL penicillin, 50 μg/mL streptomycin, 1 μM each of non-essential amino acids, 10 mM HEPES, 1 mM sodium pyruvate, 55 μM B-mercaptoethanol, 10 μg/mL gentamycin) into tissue culture treated plates that were coated for 1 h at 37° C. with 1 μg/ml anti-CD3. Anti-CD28 was added in solution at a concentration of 5 μg/ml. Two days later the PBMCs were collected and transferred into a 96 well v-bottom plate at 100,000 cells per well in FACS Buffer (2% FBS in phosphate buffered saline (PBS)). Test articles were diluted to twice the indicated concentration in FACS buffer. Test articles were added to cells at a 1:1 ratio to the final concentration indicated in the figure and incubated for 1 h at 4° C. The cells were washed three times with FACS buffer and fixed in 4% PFA. Cells were then washed once in FACS buffer. All cells were stained in 100 μL of indicated molecules in FACS buffer for 1 h at 4° C. The cells were washed three times with FACS buffer and fixed in 4% paraformaldehyde (PFA). All cells were subsequently stained in 100 μL with anti-human IgG PE, anti-CD3 PE/Dazzle 594, anti-CD45 PerCP Cy5.5, anti-CD8 BV510, and anti-CD4 BV421 for 30 minutes. Cells were washed twice to remove unbound antibody and analyzed on the BD Celesta by gating on CD3+CD8+ T cells.

T1 sequence (Q15116 25-167 limits assumed): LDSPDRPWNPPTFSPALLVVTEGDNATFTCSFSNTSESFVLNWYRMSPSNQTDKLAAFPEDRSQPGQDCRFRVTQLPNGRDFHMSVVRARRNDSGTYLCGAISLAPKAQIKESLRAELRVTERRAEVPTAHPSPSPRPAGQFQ
T2 sequence (Q15116 25-288): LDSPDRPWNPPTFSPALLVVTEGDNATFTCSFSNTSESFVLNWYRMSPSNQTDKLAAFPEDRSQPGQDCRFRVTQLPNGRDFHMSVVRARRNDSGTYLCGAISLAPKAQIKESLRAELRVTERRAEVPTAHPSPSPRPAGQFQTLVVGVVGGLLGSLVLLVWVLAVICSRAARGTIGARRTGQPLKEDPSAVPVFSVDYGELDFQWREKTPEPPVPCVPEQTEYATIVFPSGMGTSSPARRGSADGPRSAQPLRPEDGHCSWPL

Row | Binder | Kd [1] [nM] | koff [1] [s⁻¹] | kon [1] [M⁻¹ s⁻¹] | Kd [2] [nM] | EC50 (read off the curve) [3] [nM] | EC50 (read off the curve) [4] [nM] | EC50 (read off the curve) [5] [nM] | Kd [6] [nM] | EC50 (read off the curve) [7] [nM] | EC50, PD-1/PD-L1 blockade RGA (NFAT fold induction) [8] [nM] | EC50, PD-1/PD-L1 blockade RGA (NFAT fold induction) [9] [nM] | EC50 (read off the curve) [10] [nM] | EC50 (read off the curve) [11] [nM] | EC50 [12] [nM] | EC50 [13] [nM]
1 | TC4 (Fc fusion) heavy 1: QVQLVQSGVEVKKPGASVKVSCKASGYTFTNYYMYWVRQAPGQGLEWMGGINPSNGGTNFNEKFKNRVTLTTDSSTTTAYMELKSLQFDDTAVYYCARRDYRFDMGFDYWGQGTTVTVSSASTKGPSVFPLAPSSKSTSGGTAALGCLVKDYFPEPVTVSWNSGALTSGVHTFPAVLQSSGLYSLSSVVTVPSSSLGTQTYICNVNHKPSNTKVDKKVEPKSCDKTHTCPPCPAPELLGGPSVFLFPPKPKDTLMISRTPEVTCVVVDVSHEDPEVKFNWYVDGVEVHNAKTKPREEQYASTYRVVSVLTVLHQDWLNGKEYKCKVSNKALPAPIEKTISKAKGQPREPQVYTLPPCRDELTKNQVSLWCLVKGFYPSDIAVEWESNGQPENNYKTTPPVLDSDGSFFLYSKLTVDKSRWQQGNVFSCSVMHEALHNRFTQKSLSLSPGGGSSPPGGGSSGGGSGPAPTSSSTKKTQLQLEHLLLDLQMILNGINNYKNPKLTAMLTAKFAMPKKATELKHLQCLEEALKPLEEVLNLAQSKNFHLRPRDLISNINVIVLELKGSETTFMCEYADETATIVEFLNRWITFAQSIISTLT heavy 2: QVQLVQSGVEVKKPGASVKVSCKASGYTFTNYYMYWVRQAPGQGLEWMGGINPSNGGTNFNEKFKNRVTLTTDSSTTTAYMELKSLQFDDTAVYYCARRDYRFDMGFDYWGQGTTVTVSSASTKGPSVFPLAPSSKSTSGGTAALGCLVKDYFPEPVTVSWNSGALTSGVHTFPAVLQSSGLYSLSSVVTVPSSSLGTQTYICNVNHKPSNTKVDKKVEPKSCDKTHTCPPCPAPELLGGPSVFLFPPKPKDTLMISRTPEVTCVVVDVSHEDPEVKFNWYVDGVEVHNAKTKPREEQYASTYRVVSVLTVLHQDWLNGKEYKCKVSNKALPAPIEKTISKAKGQPREPQVCTLPPSRDELTKNQVSLSCAVKGFYPSDIAVEWESNGQPENNYKTTPPVLDSDGSFFLVSKLTVDKSRWQQGNVFSCSVMHEALHNHYTQKSLSLSPGGPPSGSSPVPLSLYSGSGGGAVNGTSQFTCFYNSRANISCVWSQDGALQDTSCQVHAWPDRRRWNQTCELLPVSQASWACNLILGAPDSQKLTTVDIVTLRVLCREGVRWRVMAIQDFKPFENLRLMAPISLQVVHVETHRSNISWEISQASHYFERHLEFEARTLSPGHTWEEAPLLTLKQKQEWISLETLTPDTQYEFQVRVKPLQGEFTTWSPWSQPLAFRTKPAALGKD light: EIVLTQSPATLSLSPGERATLSCRASKGVSTSGYSYLHWYQQKPGQAPRLLIYLASYLESGVPARFSGSGSGTDFTLTISSLEPEDFAVYYCQHSRDLPLTFGGGTKVEIKRTVAAPSVFIFPPSDEQLKSGTASVVCLLNNFYPREAKVQWKVDNALQSGNSQESVTEQDSKDSTYSLSSTLTLSKADYEKHKVYACEVTHQGLSSPVTKSFNRGEC | 6.58 | 0.00306 | 465000 |  |  |  |  |  |  |  |  |  |  |  | 
2 | TC46 (Fc fusion, Mask CD122 (C122A, N123C); also called PembroFab-IgG1 (N297A, MST, RF)-CD122*) heavy 1: QVQLVQSGVEVKKPGASVKVSCKASGYTFTNYYMYWVRQAPGQGLEWMGGINPSNGGTNFNEKFKNRVTLTTDSSTTTAYMELKSLQFDDTAVYYCARRDYRFDMGFDYWGQGTTVTVSSASTKGPSVFPLAPSSKSTSGGTAALGCLVKDYFPEPVTVSWNSGALTSGVHTFPAVLQSSGLYSLSSVVTVPSSSLGTQTYICNVNHKPSNTKVDKKVEPKSCDKTHTCPPCPAPELLGGPSVFLFPPKPKDTLMISRTPEVTCVVVDVSHEDPEVKFNWYVDGVEVHNAKTKPREEQYASTYRVVSVLTVLHQDWLNGKEYKCKVSNKALPAPIEKTISKAKGQPREPQVYTLPPCRDELTKNQVSLWCLVKGFYPSDIAVEWESNGQPENNYKTTPPVLDSDGSFFLYSKLTVDKSRWQQGNVFSCSVMHEALHNRFTQKSLSLSPGGGSSPPGGGSSGGGSGPAPTSSSTKKTQLQLEHLLLDLQMILNGINNYKNPKLTAMLTAKFAMPKKATELKHLQCLEEALKPLEEVLNLAQSKNFHLRPRDLISNINVIVLELKGSETTFMCEYADETATIVEFLNRWITFAQSIISTLT heavy 2: QVQLVQSGVEVKKPGASVKVSCKASGYTFTNYYMYWVRQAPGQGLEWMGGINPSNGGTNFNEKFKNRVTLTTDSSTTTAYMELKSLQFDDTAVYYCARRDYRFDMGFDYWGQGTTVTVSSASTKGPSVFPLAPSSKSTSGGTAALGCLVKDYFPEPVTVSWNSGALTSGVHTFPAVLQSSGLYSLSSVVTVPSSSLGTQTYICNVNHKPSNTKVDKKVEPKSCDKTHTCPPCPAPELLGGPSVFLFPPKPKDTLMISRTPEVTCVVVDVSHEDPEVKFNWYVDGVEVHNAKTKPREEQYASTYRVVSVLTVLHQDWLNGKEYKCKVSNKALPAPIEKTISKAKGQPREPQVCTLPPSRDELTKNQVSLSCAVKGFYPSDIAVEWESNGQPENNYKTTPPVLDSDGSFFLVSKLTVDKSRWQQGNVFSCSVMHEALHNHYTQKSLSLSPGGPPSGSSPMPYDLYHPSGGGAVNGTSQFTCFYNSRANISCVWSQDGALQDTSCQVHAWPDRRRWNQTCELLPVSQASWACNLILGAPDSQKLTTVDIVTLRVLCREGVRWRVMAIQDFKPFENLRLMAPISLQVVHVETHRACISWEISQASHYFERHLEFEARTLSPGHTWEEAPLLTLKQKQEWICLETLTPDTQYEFQVRVKPLQGEFTTWSPWSQPLAFRTKPAALGKD light: EIVLTQSPATLSLSPGERATLSCRASKGVSTSGYSYLHWYQQKPGQAPRLLIYLASYLESGVPARFSGSGSGTDFTLTISSLEPEDFAVYYCQHSRDLPLTFGGGTKVEIKRTVAAPSVFIFPPSDEQLKSGTASVVCLLNNFYPREAKVQWKVDNALQSGNSQESVTEQDSKDSTYSLSSTLTLSKADYEKHKVYACEVTHQGLSSPVTKSFNRGEC |  |  |  | 0.33 | ~0.2 | ~0.2 | ~0.2 | 0.18 | ~1 | 1.34 | 1.47 | ~0.7 | ~0.7 | 0.8 | 0.09
